The test has as its target T1, geranyl diphosphate synthase small subunit from Mentha, full-length preprotein encoded by the cDNA insert of … (Mentha piperita (peppermint oil gland …)).
T1 construct: also called Mp13.18 protein; 28 kDa protein
T1 chain: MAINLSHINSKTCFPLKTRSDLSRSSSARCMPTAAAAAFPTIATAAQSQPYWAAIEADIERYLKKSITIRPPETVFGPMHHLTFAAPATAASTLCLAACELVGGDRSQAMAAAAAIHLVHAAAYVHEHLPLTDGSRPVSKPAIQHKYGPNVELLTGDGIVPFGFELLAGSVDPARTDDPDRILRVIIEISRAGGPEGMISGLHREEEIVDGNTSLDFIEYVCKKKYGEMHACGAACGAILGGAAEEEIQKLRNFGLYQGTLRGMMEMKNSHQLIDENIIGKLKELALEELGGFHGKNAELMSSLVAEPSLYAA
Kind of test: co-expression in E. coli, anion-exchange chromatography, activity assay. The protocol:
The transformed bacteria were then induced with 1 mM IPTG and allowed to express for 24 h at 15° C. The bacteria were harvested by centrifugation, washed once with Tris buffer (pH 7.0) containing 50 mM KCl, and resuspended in 25 ml sonication buffer (25 mM Hepes, pH 7.2, 10 mM MgCl₂, 10% glycerol, 1 mM DTT, 1 mM EDTA and 1 mM benzamidine) and disrupted by brief sonication (VirSonic, 25% power, two 30 s bursts, 0-4° C.). The sonicate was centrifuged at 12,000 g (30 min), then at 195,000 g (90 min). The supernatant (soluble enzyme fraction) was loaded onto an HR 5/5 column containing Source 15Q anion-exchange separation medium (Pharmacia Biotech) that had been equilibrated with Hepes buffer (25 mM, pH 7.5) containing 10% glycerol, 10 mM MgCl₂, 1 mM DTT and 1 mM benzamidine. A step gradient of KCl (0-85 mM (10 ml); 85 mM (15 ml); 85-600 mM (20 ml)) was applied, and 2 ml fractions were collected and assayed for prenyltransferase activity using [¹⁴C]IPP and DMAPP (or GPP or FPP) as cosubstrates as described above. […]

B1: geranyl diphosphate synthase large subunit from peppermint (Mentha piperita), full-length preprotein encoded by the cDNA insert of pMp23.10, expressed from … (enzyme)
chain: MSALVNPVAKWPQTIGVKDVHGGRRRRSRSTLFQSHPLRTEMPFSLYFSSPLKAPATFSVSAVYTKEGSEIRDKDPAPSTSPAFDFDGYMLRKAKSVNKALEAAVQMKEPLKIHESMRYSLLAGGKRVRPMLCIAACELVGGDESTAMPAACAVEMIHTMSLMHDDLPCMDNDDLRRGKPTNHMAFGESVAVLAGDALLSFAFEHVAAATKGAPPERIVRVLGELAVSIGSEGLVAGQVVDVCSEGMAEVGLDHLEFIHHHKTAALLQGSVVLGAILGGGKEEEVAKLRKFANCIGLLFQVVDDILDVTKSSKELGKTAGKDLVADKTTYPKLIGVEKSKEFADRLNREAQEQLLHFHPHRAAPLIALANYIAYRDN
notes: also called Mp23.10 protein; pMp23.10 protein
For the molecule B1, the binding result is reported as “binds”.

The values above are taken from patent US20020106772A1 (WASHINGTON STATE UNIVERSITY RESEARCH FOUNDATION, published 2002).
